Data published in the supplement of paper PMC10126150.
± gives the standard deviation of the averaged measurements.

These sequences were tested on ATP (assay: switch fluorescence ratio, 500 uM ATP over buffer (Cy3 cluster intensity, sum of 5 cycles each) (fold (ratio)); higher = stronger signal-on switching upon ATP binding; sequences stand for … in TCGTCGGCAGCGTCAGATGTGTATAAGAGACAGTTTTTTTTTTTTTTTTTTTTTTTTT…TC). Conditions: aptamer strand: ATP DNA aptamer (quencher-CACCTGGGGGAGTATTGCGGAGGAAGG + anchor), 100 nM annealed; ATP concentration: 500 uM.
Procedure, shortened: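 After annealing to 100 nM quencher-labelled ATP aptamer, Cy3-labelled switching-strand clusters on a modified Illumina MiSeq flow-cell were imaged in selection buffer. A second image followed after 15 min with 500 uM ATP at 22 °C, and five such buffer/ATP cycles were done, each separated by NaOH stripping and re-annealing. The fluorescence ratio, averaged per switch-domain sequence, is summed target-cycle over summed buffer-cycle Cy3 intensity per cluster, with clusters outside 100-1000 RFU excluded.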
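Also: ATP exposure 15 min at 22 °C before imaging.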

| Sequence | switch fluorescence ratio |
| --- | --- |
| TAATGTTTAT | 0.996 ± 0.026 |
| GAACTAGGCA | 1 ± 0.012 |
| TTTATGGCAT | 1.02 ± 0.027 |
| TTTGACGG | 0.972 ± 0.023 |
| CGACGTTCGC | 1.48 ± 0.037 |
| CATTGGTAGG | 0.987 ± 0.019 |
| AACCGGATCG | 1.034 ± 0.01 |
| GACGGAACGG | 1.04 ± 0.022 |
| AGGGTGGGG | 0.928 ± 0.076 |
| GTACCGGGCA | 1.02 ± 0.026 |
| GGCCTAGGGA | 1.01 ± 0.056 |
| GATTTGCCGG | 0.995 ± 0.013 |
| TCGTTTTAGT | 0.985 ± 0.014 |
| TTATTACCGA | 1.056 ± 0.0098 |
| GGCGAAATGG | 1.06 ± 0.059 |
| TGTTCTAGA | 0.987 ± 0.053 |
| TTGACCTGAG | 1.08 ± 0.013 |
| GGATTTGATG | 1 ± 0.031 |
| GCTTTCAGGG | 1.01 ± 0.025 |
| TTTCGAACAT | 1.03 ± 0.068 |
| GATCCTACGG | 0.972 ± 0.048 |
| ACCGAGGGGG | 1.02 ± 0.041 |
| AACACGGAAC | 1.29 ± 0.027 |

| Sequence | switch fluorescence ratio |
| --- | --- |
| GCTGTCGGTG | 0.972 ± 0.0079 |
| GGGCGAGAGG | 1.02 ± 0.033 |
| GGCCGGGTTA | 1.01 ± 0.042 |
| TGGCGGTCGG | 1 ± 0.048 |
| GCCTAATAGT | 0.98 ± 0.027 |
| ATGGTGGTGT | 1.03 ± 0.013 |
| GCTTAGGGTG | 1.01 ± 0.015 |
| GTTTCGGGTG | 1.64 ± 0.84 |
| ACGCGGCAGG | 1.02 ± 0.022 |
| ATTTCGTCGA | 0.991 ± 0.019 |
| TGATATTTTT | 0.998 ± 0.028 |
| TCTTGATGGG | 0.9811 ± 0.008 |
| AGTATTCTAT | 1.004 ± 0.0034 |
| GGAGATCAGG | 1.03 ± 0.027 |
| GACTTGGGGC | 0.993 ± 0.037 |
| TACAAGCGTA | 0.992 ± 0.014 |
| ATTATTATGT | 0.978 ± 0.01 |
| AGAGTACTGG | 1.01 ± 0.01 |
| GTTGTTGTGG | 1.02 ± 0.034 |
| GTGGGTGGTC | 1.02 ± 0.013 |
| TGGATTACGT | 1.018 ± 0.0032 |
| CTCGACAGGG | 0.991 ± 0.019 |
| GATATCTGGA | 1.018 ± 0.0099 |

| Sequence | switch fluorescence ratio |
| --- | --- |
| CACCATGTTC | 0.989 ± 0.032 |
| ACCCAAGATT | 1.01 ± 0.017 |
| AAACAAGTTG | 1.02 ± 0.035 |
| GCGTGCTGAA | 1.04 ± 0.043 |
| ACAGGTACAT | 1.12 ± 0.034 |
| ACGTTTGGGG | 0.968 ± 0.049 |
| AGATTCATCA | 0.9931 ± 0.0055 |
| AAAGGGCTCT | 0.9821 ± 0.0078 |
| TCCATCGGGG | 1.01 ± 0.013 |
| TCTAGTGGTA | 0.9893 ± 0.0096 |
| AGCAAGGGGC | 1.02 ± 0.023 |
| GGGGGGGTCC | 0.99 ± 0.025 |
| CTGTAGGCCC | 1.05 ± 0.097 |
| CTGGGGGGTG | 1.02 ± 0.024 |
| GAGAGTATTT | 0.995 ± 0.073 |
| CCTAAATTAT | 1.02 ± 0.035 |
| TAAAAAGCTC | 1.01 ± 0.021 |
| TGGATGGGTA | 1.22 ± 0.33 |
| TGCGGTAGGT | 0.991 ± 0.018 |
| GGATGAAACT | 1.012 ± 0.0044 |
| GGCTGGTAGA | 1 ± 0.02 |
| GGTATGTTGG | 0.996 ± 0.011 |
| GGGGGGTAGG | 1.01 ± 0.029 |

| Sequence | switch fluorescence ratio |
| --- | --- |
| GGTTCAAAAC | 0.997 ± 0.059 |
| GTTGTGGGTT | 0.976 ± 0.022 |
| CTTGGCAAGG | 1.03 ± 0.04 |
| CAGATTATGT | 1.01 ± 0.055 |
| CGGGTATGAT | 1.031 ± 0.0092 |
| GAATTTAGCG | 1.01 ± 0.015 |
| CGTATGAAAA | 1 ± 0.014 |
| AGATGGCATT | 1 ± 0.048 |
| CTAGGGGGCG | 0.992 ± 0.058 |
| TTGAGCGGGT | 1.11 ± 0.091 |
| TTATGTTTTG | 0.999 ± 0.026 |
| GATTGATGTG | 0.995 ± 0.037 |
| CCAAGTGCTG | 0.994 ± 0.018 |
| ATTGAAGCGG | 1.01 ± 0.05 |
| TGGGGGGACG | 1.03 ± 0.086 |
| AATACTGTCG | 1.01 ± 0.016 |
| GAGGTTTAGA | 0.98753 ± 9.8e-05 |
| AATTGGTCGT | 0.965 ± 0.043 |
| GTCGTACGTT | 1.06 ± 0.025 |
| TGCACTTTTA | 1.01 ± 0.02 |
| GGGTTAATAT | 1.04 ± 0.055 |
| TAATTTGAGG | 0.955 ± 0.012 |
| GTTTTTTACG | 0.998 ± 0.012 |

| Sequence | switch fluorescence ratio |
| --- | --- |
| AGGCGCCTGG | 0.964 ± 0.04 |
| AAAGGCCGTC | 1.04 ± 0.012 |
| GCGAAGTGCG | 0.979 ± 0.015 |
| TTACAATTTC | 1.03 ± 0.056 |
| TTTTTGTGAA | 0.995 ± 0.033 |
| GATCCATACT | 1.06 ± 0.042 |
| GGGAGGTGGG | 1.009 ± 0.0014 |
| CAGCGATTTA | 1.02 ± 0.053 |
| AAGATACAGA | 1.07 ± 0.016 |
| TAGTTATGGG | 0.998 ± 0.044 |
| GCCGCGGGTC | 1.08 ± 0.048 |
| TTTCAGTTTC | 1.02 ± 0.043 |
| TAAGTTTCCT | 1.07 ± 0.03 |
| TGGGGCGTCG | 1 ± 0.037 |
| CATGATTTGA | 1.011 ± 0.0092 |
| CCGTATATAT | 2.55 ± 0.096 |
| GGAACGGGGT | 1.01 ± 0.048 |
| TTGCCTCGGG | 1.04 ± 0.037 |
| TTTTGCCTCC | 1.09 ± 0.035 |
| CATTCATGCT | 0.971 ± 0.033 |
| TATCGGGGGT | 1.02 ± 0.039 |
| CAGGGAGGGT | 0.983 ± 0.014 |
| GTTGGTGGGA | 0.973 ± 0.025 |

| Sequence | switch fluorescence ratio |
| --- | --- |
| CAAAATTGGG | 0.956 ± 0.013 |
| AGTGCTGCGA | 1.02 ± 0.044 |
| AGATGTACTA | 1.04 ± 0.043 |
| TGCATTGGGG | 1 ± 0.024 |
| TTGCTTTTCG | 0.974 ± 0.015 |
| CATGAAAGAC | 1.05 ± 0.041 |
| GGATTAATCA | 1.01 ± 0.035 |
| GCAGGGAAGG | 1.03 ± 0.035 |
| TAGCGTAGAA | 0.993 ± 0.046 |
| TTAATCCTTG | 1.02 ± 0.034 |
| GAAATTGGCA | 1.025 ± 0.004 |
| TTTCCGACGT | 1.46 ± 0.62 |
| TACGGTGCAG | 0.981 ± 0.024 |
| CGGCATGTCT | 0.997 ± 0.076 |
| TATGTGGACT | 1 ± 0.057 |
| TTTGCCGGAG | 1.08 ± 0.065 |
| AGGGAGGAGT | 0.988 ± 0.026 |
| TGTTATATAT | 0.993 ± 0.032 |
| TGGTTATGGT | 0.992 ± 0.037 |
| AAGTATAAGG | 0.994 ± 0.011 |
| TAGAAGGTGG | 1.04 ± 0.073 |
| AAGCATAGTT | 0.993 ± 0.011 |
| AGGGCGTTTC | 1.009 ± 0.0032 |

| Sequence | switch fluorescence ratio |
| --- | --- |
| TTACTAAGGT | 1.063 ± 0.01 |
| TGATTAGGGG | 0.9948 ± 0.0096 |
| TTCAAAGGGG | 1.09 ± 0.24 |
| GCAGAAAAAT | 1.04 ± 0.023 |
| GGGTTTCGAG | 1.04 ± 0.016 |
| GTAAGTTGGT | 1 ± 0.021 |
| ACGGTTTGGC | 0.939 ± 0.063 |
| GTTTGATATA | 1.01 ± 0.011 |
| TGCAGTAGTT | 1.012 ± 0.005 |
| GCACACGGGG | 1.01 ± 0.07 |
| CTAGATATGT | 0.99 ± 0.011 |
| GGGGCTGTGG | 0.9933 ± 0.0087 |
| TGAGTGTGTA | 1.03 ± 0.042 |
| AAAATTAGGT | 0.9779 ± 0.0093 |
| TTTTTACTAA | 1.01 ± 0.011 |
| TAGACATCCA | 1.048 ± 0.0045 |
| CGAAGTTGAC | 1.63 ± 0.13 |
| TCGGTGAGGG | 1.02 ± 0.07 |
| GAGCCCAGGG | 1.96 ± 0.82 |
